Experimental data taken from IntAct's records for PubMed 31515488.

B1: Cyclin-D1-binding protein 1 (Homo sapiens), O95273 (parent)
chain: MASATAPAAAVPTLASPLEQLRHLAEELRLLLPRVRVGEAQETTEEFNREMFWRRLNEAAVTVSREATTLTIVFSQLPLPSPQETQKFCEQVHAAIKAFIAVYYLLPKDQGITLRKLVRGATLDIVDGMAQLMEVLSVTPTQSPENNDLISYNSVWVACQQMPQIPRDNKAAALLMLTKNVDFVKDAHEEMEQAVEECDPYSGLLNDTEENNSDNHNHEDDVLGFPSNQDLYWSEDDQELIIPCLALVRASKACLKKIRMLVAENGKKDQVAQLDDIVDISDEISPSVDDLALSIYPPMCHLTVRINSAKLVSVLKKALEITKASHVTPQPEDSWIPLLINAIDHCMNRIKELTQSELEL
partner: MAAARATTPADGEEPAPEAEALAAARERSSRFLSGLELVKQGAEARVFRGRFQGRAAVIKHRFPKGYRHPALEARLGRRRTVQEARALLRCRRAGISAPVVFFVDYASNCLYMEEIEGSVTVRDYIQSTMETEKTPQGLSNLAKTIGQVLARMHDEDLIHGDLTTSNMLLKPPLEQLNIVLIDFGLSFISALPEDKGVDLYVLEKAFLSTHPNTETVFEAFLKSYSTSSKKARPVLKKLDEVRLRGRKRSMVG
B2: IQ motif and ubiquitin-like domain-containing protein (Homo sapiens), Q8NA54 (parent)
chain: MSNQQEKYEAQNIVNSTEESDDAFDTVTIPVPSEEPQESDQTEEHESGIEQFSESHAIHVEEQSDQSFSSLEPDNEQLMEEVISPRQVSYTPQHHEKQYAMQRPNDDSLAFLDKIKSVKESLQESVEDSLATVKVVLIPVGQEIVIPFKVDTILKYLKDHFSHLLGIPHSVLQIRYSGKILKNNETLVQHGVKPQEIVQVEIFSTNPDLYPVRRIDGLTDVSQIITVTVQTGLDQYQQVPVEIVKSDFHKPFLGGFRHKVTGVEYHNAGTQTVPKRIPERLSIFCRDTQTVFQKKNLQQTTNTTSTQMTNIGVYVSNMTDKLVTPGKYFSAAEYHAQRLKAVIVIQTYYRQWHAKIFVENLRRQKSLRLEWETQQELRKIREKEEWIKLDYHRRHNPKTNEDFEFLYNALEFWRQEELTRINQSFTGAERKAALCELLEKETQIIASIGRHRYIAYMANQEAAIQAFLDKCSAPKIWRTPNGKTIEMDTQFTIRARELQNIYKCIMLKNISQDERLDVLLTLKHTVKEHECKLTQEILELIDREVDLMMRGVKHHNLEGLRKRIATLFFHYIKTPLFNPEVAKYLKVPQDPLKFYKKIYFCHSCQLYLPSTEFSVSSTSRRIYRCRNCINLQNEAQKRESFLKYKCLLQQLYYTEADYEDDSKIAFLMQLQDIQYLTENIWASQSVLSACDNLSDLVMVRWNKSLEWSPWNCILLTKDEAAAHLKLTSIEEGYERSFIHKIKHKHILAKNYFSQVPVLASFILDDGEIDEIRWKYHSDTTPKIIESQRPPH
partner: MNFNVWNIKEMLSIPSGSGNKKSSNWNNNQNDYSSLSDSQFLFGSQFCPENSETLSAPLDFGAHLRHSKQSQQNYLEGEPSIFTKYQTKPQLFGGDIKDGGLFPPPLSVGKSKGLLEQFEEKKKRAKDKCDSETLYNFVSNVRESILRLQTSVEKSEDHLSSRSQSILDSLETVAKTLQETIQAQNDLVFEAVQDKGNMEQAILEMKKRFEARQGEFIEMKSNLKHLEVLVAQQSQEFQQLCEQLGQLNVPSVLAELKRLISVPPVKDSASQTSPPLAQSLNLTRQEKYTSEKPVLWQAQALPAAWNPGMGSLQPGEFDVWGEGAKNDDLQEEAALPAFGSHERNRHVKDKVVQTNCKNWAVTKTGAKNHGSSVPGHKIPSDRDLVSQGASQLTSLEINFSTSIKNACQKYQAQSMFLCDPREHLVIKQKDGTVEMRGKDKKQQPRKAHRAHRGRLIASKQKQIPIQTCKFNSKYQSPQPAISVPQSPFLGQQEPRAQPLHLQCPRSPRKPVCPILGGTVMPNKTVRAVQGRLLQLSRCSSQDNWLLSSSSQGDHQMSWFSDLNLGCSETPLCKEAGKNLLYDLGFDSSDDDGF
B3: Trichoplein keratin filament-binding protein (Homo sapiens), Q9BT92 (parent)
chain: MALPTLPSYWCSQQRLNQQLARQREQEARLRQQWEQNSRYFRMSDICSSKQAEWSSKTSYQRSMHAYQREKMKEEKRRSLEARREKLRQLMQEEQDLLARELEELRLSMNLQERRIREQHGKLKSAKEEQRKLIAEQLLYEHWKKNNPKLREMELDLHQKHVVNSWEMQKEEKKQQEATAEQENKRYENEYERARREALERMKAEEERRQLEDKLQAEALLQQMEELKLKEVEATKLKKEQENLLKQRWELERLEEERKQMEAFRQKAELGRFLRHQYNAQLSRRTQQIQEELEADRRILQALLEKEDESQRLHLARREQVMADVAWMKQAIEEQLQLERAREAELQMLLREEAKEMWEKREAEWARERSARDRLMSEVLTGRQQQIQEKIEQNRRAQEESLKHREQLIRNLEEVRELARREKEESEKLKSARKQELEAQVAERRLQAWEADQQEEEEEEEARRVEQLSDALLQQEAETMAEQGYRPKPYGHPKIAWN
partner: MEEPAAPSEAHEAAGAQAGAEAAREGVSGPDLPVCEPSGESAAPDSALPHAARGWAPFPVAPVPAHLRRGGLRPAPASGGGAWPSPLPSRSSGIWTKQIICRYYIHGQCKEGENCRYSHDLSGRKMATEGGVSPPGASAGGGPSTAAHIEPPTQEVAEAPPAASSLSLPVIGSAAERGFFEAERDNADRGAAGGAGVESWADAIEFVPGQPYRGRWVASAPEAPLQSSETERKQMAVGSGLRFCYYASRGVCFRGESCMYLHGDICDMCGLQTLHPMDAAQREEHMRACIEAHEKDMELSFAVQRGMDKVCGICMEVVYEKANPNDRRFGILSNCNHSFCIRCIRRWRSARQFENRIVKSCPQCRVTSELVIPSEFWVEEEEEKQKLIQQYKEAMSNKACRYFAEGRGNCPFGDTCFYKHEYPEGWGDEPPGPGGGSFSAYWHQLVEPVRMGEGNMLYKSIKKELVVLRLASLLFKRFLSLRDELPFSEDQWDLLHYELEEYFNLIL
B4: Prelamin-A/C (Homo sapiens), P02545 (parent)
chain: METPSQRRATRSGAQASSTPLSPTRITRLQEKEDLQELNDRLAVYIDRVRSLETENAGLRLRITESEEVVSREVSGIKAAYEAELGDARKTLDSVAKERARLQLELSKVREEFKELKARNTKKEGDLIAAQARLKDLEALLNSKEAALSTALSEKRTLEGELHDLRGQVAKLEAALGEAKKQLQDEMLRRVDAENRLQTMKEELDFQKNIYSEELRETKRRHETRLVEIDNGKQREFESRLADALQELRAQHEDQVEQYKKELEKTYSAKLDNARQSAERNSNLVGAAHEELQQSRIRIDSLSAQLSQLQKQLAAKEAKLRDLEDSLARERDTSRRLLAEKEREMAEMRARMQQQLDEYQELLDIKLALDMEIHAYRKLLEGEEERLRLSPSPTSQRSRGRASSHSSQTQGGGSVTKKRKLESTESRSSFSQHARTSGRVAVEEVDEEGKFVRLRNKSNEDQSMGNWQIKRQNGDDPLLTYRFPPKFTLKAGQVVTIWAAGAGATHSPPTDLVWKAQNTWGCGNSLRTALINSTGEEVAMRKLVRSVTVVEDDEDEDGDDLLHHHHGSHCSSSGDPAEYNLRSRTVLCGTCGQPADKASASGSGAQVGGPISSGSSASSVTVTRSYRSVGGSGGGSFGDNLVTRSYLLGNSSPRTQSPQNCSIM
partner: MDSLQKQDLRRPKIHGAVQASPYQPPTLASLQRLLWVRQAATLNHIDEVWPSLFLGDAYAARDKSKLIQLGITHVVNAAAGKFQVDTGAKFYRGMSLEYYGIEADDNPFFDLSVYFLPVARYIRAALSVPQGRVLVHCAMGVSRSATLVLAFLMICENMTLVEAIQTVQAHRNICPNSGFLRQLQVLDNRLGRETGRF
B5: Coiled-coil domain-containing protein 42 (Homo sapiens), Q96M95 (parent)
chain: MSLGIMEEEDLAEYFRLQYGERLLQMLQKLPNVEGASESPSIWLLEKKKETEIMHQTMVQKKKMFQRRMETLNLRWEELGVKEAQLKAHIQKSEQFIQENDQKRIRAMKKANKERELKCQHMQELTKRKQEMVALRLEHQRLSAKLKDYYIFNKYLEKVVENSEFEEIHEVIARYKTLVSMRHDLMQSAQEGQEKIERAKARLARYMEEKDDEILQQNNELARLQMRFDRARSNVIFWESRWAHIQNTAAKKTLLLGTIKMATLNLFQIVSKHLKEVTEVALEDTHKQLDMIQQFIQDRSDIWAEVKKKEQQRVRI
B6: Late cornified envelope protein 1B (Homo sapiens), Q5T7P3 (parent)
chain: MSCQQNQQQCQPPPKCIPKCPPKCLTPRCPPKCPPKCPPVSSCCSVSSGGCCGSSSGGSCGSSSGGCCSSGGGGCCLSHHRRRRSHCHRPQSSGCCSQPSGGSSCCGGGSGQHSGGCC
partner: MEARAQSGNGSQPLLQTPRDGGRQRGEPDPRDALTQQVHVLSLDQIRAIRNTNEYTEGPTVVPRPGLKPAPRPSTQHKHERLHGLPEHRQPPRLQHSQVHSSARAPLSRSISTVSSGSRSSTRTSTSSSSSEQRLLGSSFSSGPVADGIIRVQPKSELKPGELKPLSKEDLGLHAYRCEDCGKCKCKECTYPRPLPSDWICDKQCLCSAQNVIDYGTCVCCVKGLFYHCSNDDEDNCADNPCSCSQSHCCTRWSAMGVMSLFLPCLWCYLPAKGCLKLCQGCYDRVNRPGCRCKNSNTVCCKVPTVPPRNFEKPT

Variants of: B1
Conditions: with prpk_human TP53RK

effect of a mutation on the interaction	Variant
disrupting interaction strength	I277T

Variants of: B2
Conditions: with iho1_human IHO1, Q8IYA8

effect of a mutation on the interaction	Variant
with no effect	V126M
disrupting interaction strength	I501F

Variants of: B3
Conditions: with mkrn3_human MKRN3, Q13064

effect of a mutation on the interaction	Variant
with no effect	E417K
with no effect	K127R

Variants of: B4
Conditions: with ds13b_human DUSP13B

effect of a mutation on the interaction	Variant
with no effect	I299V

Variants of: B5
Conditions: with trim1_human MID2, Q9UJV3
Chain of trim1_human MID2, Q9UJV3 (Q9UJV3 whole entry): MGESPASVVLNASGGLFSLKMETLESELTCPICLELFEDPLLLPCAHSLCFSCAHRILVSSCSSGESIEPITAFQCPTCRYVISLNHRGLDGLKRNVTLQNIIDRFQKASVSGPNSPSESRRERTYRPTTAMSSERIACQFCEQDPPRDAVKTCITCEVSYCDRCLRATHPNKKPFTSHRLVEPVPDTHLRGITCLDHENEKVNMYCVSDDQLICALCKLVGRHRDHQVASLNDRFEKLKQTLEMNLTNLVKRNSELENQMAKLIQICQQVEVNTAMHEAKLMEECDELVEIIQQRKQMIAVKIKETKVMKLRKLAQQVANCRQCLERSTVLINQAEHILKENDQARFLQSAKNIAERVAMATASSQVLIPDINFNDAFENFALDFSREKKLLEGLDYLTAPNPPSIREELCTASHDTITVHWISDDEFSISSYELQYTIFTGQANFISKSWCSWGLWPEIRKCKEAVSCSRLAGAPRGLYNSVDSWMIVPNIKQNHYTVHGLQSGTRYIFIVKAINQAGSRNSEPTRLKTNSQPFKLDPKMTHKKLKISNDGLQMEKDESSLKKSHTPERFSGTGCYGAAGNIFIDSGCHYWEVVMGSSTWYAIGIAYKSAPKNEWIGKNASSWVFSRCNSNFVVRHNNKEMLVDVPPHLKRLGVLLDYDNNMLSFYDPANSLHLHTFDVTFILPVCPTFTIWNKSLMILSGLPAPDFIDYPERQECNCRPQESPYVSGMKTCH

effect of a mutation on the interaction	Variant
with no effect	R128H
with no effect	A144T

Variants of: B5
Conditions: with tfp11_human TFIP11, Q9UBB9
Chain of tfp11_human TFIP11, Q9UBB9 (Q9UBB9 whole entry): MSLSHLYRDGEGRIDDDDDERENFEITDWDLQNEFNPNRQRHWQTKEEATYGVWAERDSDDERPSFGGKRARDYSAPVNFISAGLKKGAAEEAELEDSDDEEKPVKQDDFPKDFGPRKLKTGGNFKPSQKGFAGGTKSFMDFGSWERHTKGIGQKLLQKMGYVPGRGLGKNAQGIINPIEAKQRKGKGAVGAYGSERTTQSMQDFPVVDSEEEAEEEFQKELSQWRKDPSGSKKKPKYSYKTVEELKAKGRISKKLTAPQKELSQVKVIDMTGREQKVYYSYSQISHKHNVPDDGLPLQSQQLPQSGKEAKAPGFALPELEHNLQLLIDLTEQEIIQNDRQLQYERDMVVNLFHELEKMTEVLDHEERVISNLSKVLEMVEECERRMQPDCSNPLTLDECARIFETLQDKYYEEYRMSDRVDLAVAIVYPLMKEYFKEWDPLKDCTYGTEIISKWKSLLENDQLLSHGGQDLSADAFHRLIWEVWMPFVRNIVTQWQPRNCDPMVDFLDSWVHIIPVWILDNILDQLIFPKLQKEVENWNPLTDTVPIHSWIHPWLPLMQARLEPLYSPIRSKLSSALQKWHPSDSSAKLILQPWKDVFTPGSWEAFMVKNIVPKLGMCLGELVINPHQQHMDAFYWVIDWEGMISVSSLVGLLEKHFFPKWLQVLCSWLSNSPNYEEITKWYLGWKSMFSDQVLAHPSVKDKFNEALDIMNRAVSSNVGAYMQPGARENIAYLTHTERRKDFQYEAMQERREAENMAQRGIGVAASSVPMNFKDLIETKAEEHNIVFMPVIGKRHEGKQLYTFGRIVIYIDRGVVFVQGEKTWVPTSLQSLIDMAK

effect of a mutation on the interaction	Variant
with no effect	R128H
with no effect	A144T

Variants of: B6
Conditions: with spy2_human SPRY2, O43597

effect of a mutation on the interaction	Variant
with no effect	H113Q
